Laboratory results as given in IntAct's records for PubMed 24240280.

B1: Synaptic vesicle glycoprotein 2C (Homo sapiens), Q496J9 (parent)
chain: MEDSYKDRTSLMKGAKDIAREVKKQTVKKVNQAVDRAQDEYTQRSYSRFQDEEDDDDYYPAGETYNGEANDDEGSSEATEGHDEDDEIYEGEYQGIPSMNQAKDSIVSVGQPKGDEYKDRRELESERRADEEELAQQYELIIQECGHGRFQWALFFVLGMALMADGVEVFVVGFVLPSAETDLCIPNSGSGWLGSIVYLGMMVGAFFWGGLADKVGRKQSLLICMSVNGFFAFLSSFVQGYGFFLFCRLLSGFGIGGAIPTVFSYFAEVLAREKRGEHLSWLCMFWMIGGIYASAMAWAIIPHYGWSFSMGSAYQFHSWRVFVIVCALPCVSSVVALTFMPESPRFLLEVGKHDEAWMILKLIHDTNMRARGQPEKVFTVNKIKTPKQIDELIEIESDTGTWYRRCFVRIRTELYGIWLTFMRCFNYPVRDNTIKLTIVWFTLSFGYYGLSVWFPDVIKPLQSDEYALLTRNVERDKYANFTINFTMENQIHTGMEYDNGRFIGVKFKSVTFKDSVFKSCTFEDVTSVNTYFKNCTFIDTVFDNTDFEPYKFIDSEFKNCSFFHNKTGCQITFDDDYSAYWIYFVNFLGTLAVLPGNIVSALLMDRIGRLTMLGGSMVLSGISCFFLWFGTSESMMIGMLCLYNGLTISAWNSLDVVTVELYPTDRRATGFGFLNALCKAAAVLGNLIFGSLVSITKSIPILLASTVLVCGGLVGLCLPDTRTQVLM

Variants of: B1
Details: with bxa1_clobo botA

| Variant | effect of a mutation on the interaction |
| --- | --- |
| F563A | disrupting interaction strength |
